Test results published in article PMC12831531 (Cell reports, 2025).
Like-named read-outs stand apart in the source and are kept apart here.

Legend:
[1] = target: biotinylated human FcRn (human) (UniProt P55899); experiment: BLI; Octet RED96e; biotinylated FcRn on streptavidin biosensors; hu4D5 Fc variants 1000–31.2 nM; PBS pH 6.0, 0.02% Tween 20, room temperature; steady state
[2] = target: t-gp68 (truncated gp68 ectodomain, soluble) (HCMV AD169); experiment: SPR; BIAcore X100; t-gp68-twin strep-FLAG captured (40 RU) on anti-strep Fab; hu4D5 IgG1 Fc variants injected; 2:1 binding kinetics (first constants only) and steady state analysis
[3] = target: hu4D5 human IgG1 antibody with Fc variant G2 (human); experiment: BLI; Octet RED96e; hu4D5 IgG1 variants on CH1-binding (FAB2G) biosensors; CD16A F158 5000–156.25 nM, V158 2000–62.5 nM; room temperature, PBS pH 7.4, 0.02% Tween 20, 0.1% BSA; steady state
[4] = target: hu4D5 human IgG1 antibody with Fc variant G5 (human); experiment: as above
[5] = target: hu4D5 human IgG1 antibody with wild-type Fc (human); experiment: as above
[6] = target: vFcγR on AD169-infected MRC5 cells (Figure 1C); experiment: flow cytometry on cells
[7] = target: human IgG1 Fc (wild type, without Fab arms) (human); experiment: SPR; BIAcore X100; 200 RU human IgG1 Fc immobilised on CM5; t-gp68-strep-FLAG injected 250–3 nM; 1:1 binding kinetics
[8] = target: human IgG1 Fc (wild type, without Fab arms) (human); experiment: as above; remark: listed apart in the source
[9] = target: human IgG1 Fc (wild type, without Fab arms) (human); experiment: negative-stain electron microscopy; purified Fc, gp34-M and t-gp68 combined in various ratios, complexes purified by SEC; 2 mM Tris pH 8.0, 200 mM NaCl; uranyl acetate
[10] = target: HCMV glycoprotein B (gB) on the surface of infected fibroblasts (Human cytomegalovirus AD169, UniProt P06473, strain); experiment: flow cytometry on cells; antibody on AD169-, Δ3- or mock-infected MRC5 fibroblasts, on ice; extracellular antibody detected with goat anti-human Fcγ AF647 (anti-mouse Fcγ for SM5–1-mFc); details: one partner purified

Chain of biotinylated human FcRn (human) (P55899 24-297, chain 1 of 2): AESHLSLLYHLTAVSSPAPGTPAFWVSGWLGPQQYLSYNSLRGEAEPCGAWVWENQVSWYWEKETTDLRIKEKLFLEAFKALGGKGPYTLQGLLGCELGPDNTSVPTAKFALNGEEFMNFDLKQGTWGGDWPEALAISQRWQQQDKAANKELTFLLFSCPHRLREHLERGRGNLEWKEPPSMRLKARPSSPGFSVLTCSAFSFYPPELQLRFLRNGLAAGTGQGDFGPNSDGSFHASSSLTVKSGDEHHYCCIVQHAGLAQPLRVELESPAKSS
Chain of biotinylated human FcRn (human) (P61769 21-119, chain 2 of 2, further chain): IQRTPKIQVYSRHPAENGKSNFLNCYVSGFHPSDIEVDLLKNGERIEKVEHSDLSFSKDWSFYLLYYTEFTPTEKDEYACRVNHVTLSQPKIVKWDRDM

hu4D5 human IgG1 antibody with wild-type Fc
Kd [1]: 50 nM | Kd [2]: 80 nM | ka1 (first step of a 2:1 fit) [2]: 65000 M⁻¹ s⁻¹ | kd1 (first step of a 2:1 fit) [2]: 0.004 s⁻¹ | kinetic KD from ka1 and kd1 of a 2:1 fit [2]: 69 nM

human CD16A F158 (from UniProt P08637 17-208) (receptor)
Kd [3]: 360 nM | Kd [4]: 990 nM | Kd [5]: 1160 nM

isotype control 2B1 human IgG1 antibody
percent of cells positive for extracellular antibody [6]: 30 % cells

t-gp68 (truncated gp68 ectodomain, soluble) (domain or fragment)
Kd [7]: 110 nM | koff [7]: 0.005 s⁻¹ | kon [7]: 40000 M⁻¹ s⁻¹ | koff [8]: 0.004 s⁻¹ | stoichiometry N [9]: 2

B1: SM5–1 human IgG1 antibody with wild-type Fc (antibody, V domains shown)
VH: QVQLVQSGAEVRKPGASVKVSCKASGYSLKDHYMVWVRQAPGQGLEWMGWINPQSGGTGYGQKFQGRVTMTRDTSTNTAYMILSSLRSDDTAVYFCARDGAKTVSNSGLSLLYYHNRLDAWGQGTMVTVSS
VL: QSVLTQPPSVSAAPGQMVTISCSGSSSNIGKNYVSWYQQLPGAAPKLLIFDNNKRPSGTPDRFSGSKSGTSATLVITGLQTGDEADYYCGTPDRSLSVIFGGGTKVTVL
notes: also called SM5–1 WT; human SM5–1; source: ExpiCHO, purified (Protein A)
percent of cells positive for extracellular antibody [10]: ~70%

B2: SM5–1 human IgG1 antibody with Fc variant G5 (antibody, V domains shown)
VH: QVQLVQSGAEVRKPGASVKVSCKASGYSLKDHYMVWVRQAPGQGLEWMGWINPQSGGTGYGQKFQGRVTMTRDTSTNTAYMILSSLRSDDTAVYFCARDGAKTVSNSGLSLLYYHNRLDAWGQGTMVTVSS
VL: QSVLTQPPSVSAAPGQMVTISCSGSSSNIGKNYVSWYQQLPGAAPKLLIFDNNKRPSGTPDRFSGSKSGTSATLVITGLQTGDEADYYCGTPDRSLSVIFGGGTKVTVL
notes: IgG1; also called SM5–1 with G5; source: ExpiCHO, purified (Protein A)
percent of cells positive for extracellular antibody [10]: ~70%

B3: SM5–1 human IgG1 antibody with Fc variant G2 (antibody, V domains shown)
VH: QVQLVQSGAEVRKPGASVKVSCKASGYSLKDHYMVWVRQAPGQGLEWMGWINPQSGGTGYGQKFQGRVTMTRDTSTNTAYMILSSLRSDDTAVYFCARDGAKTVSNSGLSLLYYHNRLDAWGQGTMVTVSS
VL: QSVLTQPPSVSAAPGQMVTISCSGSSSNIGKNYVSWYQQLPGAAPKLLIFDNNKRPSGTPDRFSGSKSGTSATLVITGLQTGDEADYYCGTPDRSLSVIFGGGTKVTVL
notes: IgG1; also called SM5–1 with G2; source: ExpiCHO, purified (Protein A)
percent of cells positive for extracellular antibody [10]: ~70%
